Results from the supplement of paper PMC10567573.

B1: TNXB (parent)
chain: LLQRELMVPGTRHSAVLRDLRSGT

Variants of: B1
Experiment: protein stability index of a GFP-peptide fusion (GPS, HEK-293T) (PSI 1-6); higher = more stable
Conditions: c terminus: a fixed tail appended
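Note: lentivirally expressed fusions sorted by FACS into six bins by GFP to DsRed ratio, PSI derived from sequencing read proportions per bin multiplied by bin number.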

First: LLKRELMVPGTRHSAVLRDLRSGT [Q3K]
Second: LLGRELMVPGTRHSAVLRDLRSGT [Q3G]
The protein stability index of the first is lower: 2.7 for the first, 2.74 for the second.

First: LLNRELMVPGTRHSAVLRDLRSGT [Q3N]
Second: LLQRELMVMGTRHSAVLRDLRSGT [P9M]
The protein stability index of the first is higher: 2.38 for the first, 2.1 for the second.

First: LLQRELMVQGTRHSAVLRDLRSGT [P9Q]
Second: LLQRELMVKGTRHSAVLRDLRSGT [P9K]
The protein stability index of the first is lower: 2.1 for the first, 2.21 for the second.

Going from LLQRELMVRGTRHSAVLRDLRSGT [P9R] to LLQRELMVGGTRHSAVLRDLRSGT [P9G], the protein stability index rises from 2.21 to 2.3.

Going from LLQRELMVPPTRHSAVLRDLRSGT [G10P] to LLQRELMVPWTRHSAVLRDLRSGT [G10W], the protein stability index falls from 2.54 to 1.72.

First: LLQRELMVPFTRHSAVLRDLRSGT [G10F]
Second: LLQRELMVPVTRHSAVLRDLRSGT [G10V]
The protein stability index of the first is higher: 2.33 for the first, 2.02 for the second.

Compared with LLQRELMVPKTRHSAVLRDLRSGT [G10K], LLQRELMVPETRHSAVLRDLRSGT [G10E] is higher in protein stability index: 2 for the first, 3.01 for the second.

Going from LLQRELMVPRTRHSAVLRDLRSGT [G10R] to LLQRELMVPYTRHSAVLRDLRSGT [G10Y], the protein stability index falls from 2.9 to 1.09.

Compared with LLQRELMVPCTRHSAVLRDLRSGT [G10C], LLQRELMVPDTRHSAVLRDLRSGT [G10D] is higher in protein stability index: 1.43 for the first, 2.85 for the second.

Going from LLQRELMVPMTRHSAVLRDLRSGT [G10M] to LLQRELMVPGTRHSAVLSDLRSGT [R18S], the protein stability index rises from 1.72 to 2.61.

Compared with LLQRELMVPGTRHSAVLMDLRSGT [R18M], LLQRELMVPGTRHSAVLKDLRSGT [R18K] is higher in protein stability index: 2.12 for the first, 2.39 for the second.

Compared with LLQRELMVPGTRHSAVLHDLRSGT [R18H], LLQRELMVPGTRHSAVLDDLRSGT [R18D] is lower in protein stability index: 2.86 for the first, 2.83 for the second.

Compared with LLQRELMVPGTRHSAVLNDLRSGT [R18N], LLQRELMVPGTRHSAVLYDLRSGT [R18Y] is lower in protein stability index: 2.71 for the first, 2.07 for the second.

First: LLQRELMVPGERHSAVLRDLRSGT [T11E]
Second: LLQRELMVPGPRHSAVLRDLRSGT [T11P]
The protein stability index of the first is higher: 2.65 for the first, 2.51 for the second.

Compared with LLQRELMVPGDRHSAVLRDLRSGT [T11D], LLQRELMVPGWRHSAVLRDLRSGT [T11W] is lower in protein stability index: 2.81 for the first, 1.69 for the second.

First: LLQRELMVPGTRHSAVLRCLRSGT [D19C]
Second: LLQRELMVPGTRHSAVLRTLRSGT [D19T]
The protein stability index of the first is lower: 1.49 for the first, 2.46 for the second.

Compared with LLQRELMVPGTRHSAVLRKLRSGT [D19K], LLQRELMVPGTRHSAVLRMLRSGT [D19M] is higher in protein stability index: 2.07 for the first, 2.39 for the second.

First: LLQRELMVPGTRHSAVLRQLRSGT [D19Q]
Second: LLQRELMVPGTRHSAVLRELRSGT [D19E]
The protein stability index of the first is lower: 2.29 for the first, 2.78 for the second.

Going from LLQRELMVPGTRHSAVLRYLRSGT [D19Y] to LLQRELMVPGTRHSAVLRILRSGT [D19I], the protein stability index falls from 2.23 to 1.71.

Compared with LLQSELMVPGTRHSAVLRDLRSGT [R4S], LLQFELMVPGTRHSAVLRDLRSGT [R4F] is lower in protein stability index: 2.42 for the first, 1.72 for the second.

Compared with LLQEELMVPGTRHSAVLRDLRSGT [R4E], LLQLELMVPGTRHSAVLRDLRSGT [R4L] is higher in protein stability index: 2.65 for the first, 2.76 for the second.

First: LLQCELMVPGTRHSAVLRDLRSGT [R4C]
Second: LLQTELMVPGTRHSAVLRDLRSGT [R4T]
The protein stability index of the first is higher: 2.49 for the first, 2.23 for the second.

Compared with LLQYELMVPGTRHSAVLRDLRSGT [R4Y], LLQIELMVPGTRHSAVLRDLRSGT [R4I] is lower in protein stability index: 2.37 for the first, 2.3 for the second.

Compared with LLQRPLMVPGTRHSAVLRDLRSGT [E5P], LLQRMLMVPGTRHSAVLRDLRSGT [E5M] is lower in protein stability index: 2.44 for the first, 1.64 for the second.

First: LLQRVLMVPGTRHSAVLRDLRSGT [E5V]
Second: LLQRHLMVPGTRHSAVLRDLRSGT [E5H]
The protein stability index of the first is higher: 2.11 for the first, 1.87 for the second.

Compared with LLQRALMVPGTRHSAVLRDLRSGT [E5A], LLQRWLMVPGTRHSAVLRDLRSGT [E5W] is higher in protein stability index: 1.81 for the first, 2.84 for the second.

First: LLQRDLMVPGTRHSAVLRDLRSGT [E5D]
Second: LLQRYLMVPGTRHSAVLRDLRSGT [E5Y]
The protein stability index of the first is higher: 2.81 for the first, 2.38 for the second.

First: LLQRCLMVPGTRHSAVLRDLRSGT [E5C]
Second: LLQRGLMVPGTRHSAVLRDLRSGT [E5G]
The protein stability index of the first is lower: 1.67 for the first, 2.03 for the second.

First: LLQRNLMVPGTRHSAVLRDLRSGT [E5N]
Second: LLQRELMVPGTRHSNVLRDLRSGT [A15N]
The protein stability index of the first is lower: 2.85 for the first, 3.19 for the second.

Going from LLQRELMVPGTRHSEVLRDLRSGT [A15E] to LLQRELMVPGTRHSFVLRDLRSGT [A15F], the protein stability index falls from 2.92 to 1.98.

Going from LLQRELMVPGTRHSDVLRDLRSGT [A15D] to LLQRELMVPGTRHSIVLRDLRSGT [A15I], the protein stability index falls from 2.29 to 2.26.

First: LLQRELMVPGTRHSWVLRDLRSGT [A15W]
Second: LLQRELMVPGTRHSQVLRDLRSGT [A15Q]
The protein stability index of the first is higher: 3.49 for the first, 1.97 for the second.

Going from LLQRELMVPGTRHSTVLRDLRSGT [A15T] to LLQRELMVPGTRHSAMLRDLRSGT [V16M], the protein stability index falls from 2.18 to 2.15.

First: LLQRELMVPGTRHSALLRDLRSGT [V16L]
Second: LLQRELMVPGTRHSATLRDLRSGT [V16T]
The protein stability index of the first is lower: 2.33 for the first, 2.7 for the second.

First: LLQRELMVPGTRHSAYLRDLRSGT [V16Y]
Second: LLQRELMVPGTRHSADLRDLRSGT [V16D]
The protein stability index of the first is lower: 3.05 for the first, 3.19 for the second.

Compared with LLQRELMVPGTRHSAWLRDLRSGT [V16W], LLQRELMVPGTRHSAILRDLRSGT [V16I] is higher in protein stability index: 2.06 for the first, 2.11 for the second.

Going from LLQRELMVPGTRHSAALRDLRSGT [V16A] to LLQRELMVPGTRHSANLRDLRSGT [V16N], the protein stability index falls from 3.05 to 3.

Going from YLQRELMVPGTRHSAVLRDLRSGT [L1Y] to MLQRELMVPGTRHSAVLRDLRSGT [L1M], the protein stability index rises from 2.3 to 2.73.

First: VLQRELMVPGTRHSAVLRDLRSGT [L1V]
Second: ELQRELMVPGTRHSAVLRDLRSGT [L1E]
The protein stability index of the first is lower: 2.47 for the first, 3.08 for the second.

First: LLQRELQVPGTRHSAVLRDLRSGT [M7Q]
Second: LLQRELGVPGTRHSAVLRDLRSGT [M7G]
The protein stability index of the first is lower: 2.23 for the first, 3.15 for the second.

Going from LLQRELDVPGTRHSAVLRDLRSGT [M7D] to LLQRELYVPGTRHSAVLRDLRSGT [M7Y], the protein stability index falls from 3.17 to 3.15.

Compared with LLQRELPVPGTRHSAVLRDLRSGT [M7P], LLQRELAVPGTRHSAVLRDLRSGT [M7A] is lower in protein stability index: 3.11 for the first, 2.97 for the second.

First: LLQRELTVPGTRHSAVLRDLRSGT [M7T]
Second: LLQRELMVPGTRHSAVLRDLPSGT [R21P]
The protein stability index of the first is lower: 2.72 for the first, 2.85 for the second.

Going from LLQRELMVPGTRHSAVLRDLVSGT [R21V] to LLQRELMVPGTRHSAVLRDLCSGT [R21C], the protein stability index rises from 1.88 to 2.06.

First: LLQRELMVPGTRHSAVLRDLHSGT [R21H]
Second: LLQRELMVPGTRHSAVLRDLYSGT [R21Y]
The protein stability index of the first is higher: 3.21 for the first, 2.12 for the second.

First: LLQRELMVPGTRHSAVLRDLWSGT [R21W]
Second: LLQRELMVPGTRHSAVLRDLMSGT [R21M]
The protein stability index of the first is higher: 2.75 for the first, 1.99 for the second.

Compared with LLQRELMVPGTRHSAVLRDLESGT [R21E], LLQRELMVPGTRHSAVLRDLKSGT [R21K] is higher in protein stability index: 2.58 for the first, 3.03 for the second.
